Experimental findings from the supplement of paper PMC10567573 are described below.

A short description of the data set: protein stability index of a GFP-peptide fusion (GPS, HEK-293T) (PSI 1-6); higher = more stable.
Where [1] appears, read: treatment: DMSO, c terminus: a fixed tail appended.
Where [2] appears, read: treatment: MLN4924 1 uM, 8 h, c terminus: a fixed tail appended.
Where [3] appears, read: treatment: DMSO, c terminus: native.
Setting [4] is: treatment: MLN4924 1 uM, 8 h, c terminus: native.

± gives the standard deviation.
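Further: 24-mer peptide tiles fused after GFP, lentivirally expressed, FACS-sorted into six equal bins by GFP/DsRed ratio, decoded by Illumina sequencing, PSI is the read-weighted mean bin number.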

As for GELQESGLALCPEVQDLLEGCELP [SMG5], the protein stability index was 5.17 ± 0.11 under setting [1] and 5.08 ± 0.22 under setting [2].

QNIYKCIMLKNISQDERLDVLLTL [IQUB]: the protein stability index was 2.5 ± 0.098 under setting [1] and 2.61 ± 0.51 under setting [2].

With LECEINTYRSLLESEDCKLPCNPC [KRT34], the protein stability index by setting is: under setting [1], 3.81 ± 0.16; under setting [2], 3.94 ± 0.35.

Sequence CSFCKRAFPSGHLLDAHILEWHDS [ZNF511] had a protein stability index under setting [1] of 5.19 ± 0.093 and a protein stability index under setting [2] of 5.12 ± 0.24.

WIGYEHTSFCGQQFILERGEYPRW [CRYBA1] had a protein stability index under setting [1] of 2.69 ± 0.41 and a protein stability index under setting [2] of 2.21 ± 0.15.

As to ESEVYSWGKGARGRLGRRDEDAGL [NEK8], the protein stability index under setting [1] turned out to be 4.67 ± 0.19 and the protein stability index under setting [2] worked out at 4.66 ± 0.37.

Regarding LPTITSELSGAPRCHTVPCAGSTA [PXN], the protein stability index was found to be 3.86 ± 0.34 under setting [1] and 3.83 ± 0.27 under setting [2].

Turning to FIVGMVGNATLLRIIYQNKCMRNG [EDNRA], the protein stability index is, setting by setting: under setting [1], 2.98 ± 0.15; under setting [2], 2.51 ± 0.68.

As for KLSPKKTWEGFIGGFFATVVFGLL [CDS2], the protein stability index is, setting by setting: under setting [1], 2.33 ± 0.43; under setting [2], 2.01 ± 0.28.

As to SRQYDKFLTHFILMNDVIDTSGFP [FBXO33], the protein stability index by setting is: under setting [1], 2.51 ± 0.5; under setting [2], 1.97 ± 0.5.

YGPQVNNISHTKEKKKGKAKKKRL [WASL]: the protein stability index by setting is: under setting [1], 4.48 ± 0.34; under setting [2], 4.68 ± 0.29.

Turning to YVKVLHHMVKISGGPHISYPPLHE [MAGEA3], the protein stability index by setting is: under setting [1], 2.33 ± 0.61; under setting [2], 2.58 ± 0.31.

Regarding EAAMAIASLNGYRLGERVLQVSFK [ELAVL3], the protein stability index is 2.24 ± 0.11 under setting [1] and 2.27 ± 0.17 under setting [2].

For the sequence IQKAYDELRLQSEAFKKHSLDLLS [CCDC89], the protein stability index by setting is: under setting [1], 2.68 ± 0.31; under setting [2], 2.91 ± 0.23.

As for EVHSLTLSPPEQAAQPMQPLPESL [PLAGL1], the protein stability index by setting is: under setting [1], 4.92 ± 0.26; under setting [2], 5.02 ± 0.088.

For the sequence EDDIRPDIKDDIYDPTYKDKEGPS [SCD], the protein stability index stood at 5.46 ± 0.39 under setting [1] and 5.37 ± 0.34 under setting [2].

Consider DDKDALVFVLIDEVESLTAARNAC [TRIP13], for which the protein stability index is 2.21 ± 0.32 under setting [1] and 2.38 ± 0.34 under setting [2].

Regarding TEPMAWNETADLGLDIGAQGEPLG [CTNNB1], the protein stability index was found to be 5.29 ± 0.23 under setting [1] and 5.25 ± 0.18 under setting [2].

On to HSVFEFLAFKNDIQFWNSRQSLEG [CLPTM1], for which the protein stability index under setting [1] turned out to be 2.03 ± 0.17 and the protein stability index under setting [2] is 2.13 ± 0.28.

KEAGVQKLILTSSASVIFEGVDIK [NSDHL]: the protein stability index under setting [1] came out at 2.99 ± 0.3 and the protein stability index under setting [2] was found to be 2.84 ± 0.19.

For ARLKRSQSFGVASASSIKQILLEW [SMTNL2], the protein stability index under setting [1] came out at 2.33 ± 0.28 and the protein stability index under setting [2] turned out to be 2.29 ± 0.17.

For the sequence RVYDGREILTCGRDGEPEPMQKLQ [RBBP5], the protein stability index was 4.02 ± 0.38 under setting [1] and 3.94 ± 0.31 under setting [2].

In the case of GGYGFGRGRASGFAGSMFGSVALG [KRT71], the protein stability index by setting is: under setting [1], 3.05 ± 0.6; under setting [2], 2.96 ± 0.25.

Turning to RIFAQYMVPHNLETTERMKCLYYL [PDS5B], the protein stability index reads like this: under setting [1], 2.91 ± 0.62; under setting [2], 2.36 ± 0.43.

In the case of STAPGLFLVSTHTGEVRTARALLE [PCDHGC5], the protein stability index came to 2.5 ± 0.27 under setting [1] and 2.54 ± 0.31 under setting [2].

YRTWNVVVHDWLYSYVYQDGLRLL [SOAT2] displayed a protein stability index under setting [1] of 3.02 ± 0.41 and a protein stability index under setting [2] of 2.82 ± 0.84.

For the sequence GMGGIQNEKETMQSLNDRLASYLD [KRT18], the protein stability index runs as follows: under setting [1], 3.86 ± 0.18; under setting [2], 3.84 ± 0.23.

VASGLQFDVETRHVFIGDHSGQVT [WDFY2]: the protein stability index was determined as 2.91 ± 0.54 under setting [1] and 3.12 ± 0.46 under setting [2].

As to PNAFIGSDVVDWLYHNVEGFTDRR [DVL3], the protein stability index is, setting by setting: under setting [1], 3.13 ± 0.26; under setting [2], 3.15 ± 0.32.

On to NFLTQRENTIAGANHTHTFYGHSH [C10orf62], for which the protein stability index is, setting by setting: under setting [1], 3.1 ± 0.26; under setting [2], 3.09 ± 0.2.

For the sequence LEKVECTPSQEHLKHQTVYRLLKC [FEM1A], the protein stability index reads like this: under setting [1], 2.85 ± 0.26; under setting [2], 3.07 ± 0.38.

On to LVLYPTSLAIFSEELDGLCFKGEL [PLEKHN1], for which the protein stability index reads like this: under setting [1], 2.88 ± 0.58; under setting [2], 2.96 ± 0.23.

With QQIEEQRVQVQVVERAQQVAVQEQ [FLOT1], the protein stability index was 5.17 ± 0.41 under setting [1] and 5.03 ± 0.32 under setting [2].

For the sequence QEEAIAQFPYVEFTGRDSITCLTC [TMEM106C], the protein stability index runs as follows: under setting [1], 2.5 ± 0.21; under setting [2], 2.57 ± 0.24.

Turning to DYEKMFGTKCHGCDFKIDAGDRFL [PDLIM7], the protein stability index is, setting by setting: under setting [1], 2.92 ± 0.31; under setting [2], 2.96 ± 0.66.

Turning to LKDEEGKLKDLSTVTSLQVPVLKP [PPP2R2C], the protein stability index amounted to 4.91 ± 0.17 under setting [1] and 5.02 ± 0.085 under setting [2].

For ERCFRGSSYPVCVSKVVKGGSSGK [OAS1], the protein stability index by setting is: under setting [1], 3.84 ± 0.13; under setting [2], 4.07 ± 0.12.

On to IHTGIKPHQCSECGRAFSRKSLLV [ZNF649], for which the protein stability index under setting [1] amounted to 2.56 ± 0.37 and the protein stability index under setting [2] is 2.18 ± 0.4.

Take GGRFRCPSCRHEVVLDRHGVYGLQ [TRIM55]: the protein stability index runs as follows: under setting [1], 2.31 ± 0.23; under setting [2], 2.36 ± 0.6.

In the case of YMAICKPLHELITMNRRVCVLMLL [OR4A15], the protein stability index under setting [1] was determined as 2.79 ± 0.49 and the protein stability index under setting [2] is 2.35 ± 0.32.

On to RVAKKLQSGLVWTNCWLIRELNLP [ALDH8A1], for which the protein stability index is, setting by setting: under setting [1], 2.5 ± 0.38; under setting [2], 2.37 ± 0.54.

For the sequence RKMSLLKFLAKVNGSDPRSFPLWY [MAGEA10], the protein stability index runs as follows: under setting [1], 2.38 ± 0.63; under setting [2], 2.01 ± 0.22.

On to LSSAEENEPSQAETAVEGDPSGVS [C18orf25], for which the protein stability index under setting [1] worked out at 5.47 ± 0.24 and the protein stability index under setting [2] is 5.39 ± 0.47.

Regarding LPPEALTAPSGGQWGAEPEGSCYQ [RNF208], the protein stability index is, setting by setting: under setting [1], 4.73 ± 0.42; under setting [2], 4.73 ± 0.078.

On to AAVPDEIPPLEGDEDASRMEEVD [HSP90AB1], for which the protein stability index under setting [3] stood at 5.62 ± 0.27 and the protein stability index under setting [4] was determined as 5.68 ± 0.21.

Take QDACQAQAREKELLELQSQQACTH [CCDC89]: the protein stability index is, setting by setting: under setting [1], 4.91 ± 0.29; under setting [2], 4.9 ± 0.2.

Consider LDSEIKKNSDGMEAAGVQIQMVNE [CD207], for which the protein stability index under setting [1] was found to be 5.41 ± 0.59 and the protein stability index under setting [2] was 5.22 ± 0.35.

As for GTSHGAPPARGPRMSYGGSTCHAY [RBMY1A1], the protein stability index worked out at 3.79 ± 0.22 under setting [1] and 3.77 ± 0.21 under setting [2].

For the sequence NCPAHWLAQDWERCNTTCGRGVKK [ADAMTSL2], the protein stability index reads like this: under setting [1], 4.16 ± 0.19; under setting [2], 4.42 ± 0.16.

Take RFVPSNPIGILTTSYCELLQNKVP [PPTC7]: the protein stability index under setting [1] worked out at 2.57 ± 0.29 and the protein stability index under setting [2] came to 2.51 ± 0.18.

Take EVLAQPQGALAPPNCESDSKTGV [DNAAF3]: the protein stability index under setting [3] was 5.34 ± 0.27 and the protein stability index under setting [4] is 5.3 ± 0.39.

Regarding TEDEKKELENLAAMDLELQKIAEK [CHGB], the protein stability index under setting [1] turned out to be 5.47 ± 0.22 and the protein stability index under setting [2] was 5.57 ± 0.083.

LLNTLSLAFVGGLPLAYQQTSAFA [TMEM175] came in with a protein stability index under setting [1] of 3.2 ± 0.3 and a protein stability index under setting [2] of 2.74 ± 0.42.

As to VAGEGVRRKGEMGLSAEDGVWAVI [TRIM15], the protein stability index was 2.51 ± 0.22 under setting [1] and 2.55 ± 0.2 under setting [2].

Turning to LHALKLRSPDASPSRAPPSTQEPQ [GNAS], the protein stability index stood at 4.54 ± 0.25 under setting [1] and 4.65 ± 0.1 under setting [2].

With HVQNQVDEVIDVMQENITKVIERG [VAMP4], the protein stability index is, setting by setting: under setting [1], 3.95 ± 0.2; under setting [2], 4.13 ± 0.52.

In turn, EWARALETRDWGGAQFEGEKGRAL [ZSWIM9] had a protein stability index under setting [1] of 3.88 ± 0.3 and a protein stability index under setting [2] of 3.9 ± 0.31.

For the sequence TGESKEQVANSAFVERVRKRGFEV [HSP90AB1], the protein stability index by setting is: under setting [1], 4.18 ± 0.15; under setting [2], 4.26 ± 0.12.

For RDVALQIHFTLIQAFCCENDINIL [GADD45A], the protein stability index is, setting by setting: under setting [1], 2.92 ± 0.52; under setting [2], 2.94 ± 0.59.

For METLCLRASFWLALVGCVISDNPE [EDNRA], the protein stability index under setting [1] was determined as 3.25 ± 0.19 and the protein stability index under setting [2] stood at 2.7 ± 0.75.

In the case of NKVAGHPLAQNERCLHMFLQDEII [SNX3], the protein stability index runs as follows: under setting [1], 2.64 ± 0.2; under setting [2], 2.7 ± 0.46.

As for QVADINDNPPTFSQVSYFTYIPEN [PCDHGA10], the protein stability index is, setting by setting: under setting [1], 2.98 ± 0.32; under setting [2], 3.09 ± 0.3.

For the sequence RAQMIRNEYRKLHPVLHKEEKQHL [TRIM43], the protein stability index by setting is: under setting [1], 3 ± 0.37; under setting [2], 3.73 ± 0.2.

AGAEPLPRNGDQWHEIRQGRLPRI [WEE1]: the protein stability index was found to be 3.86 ± 0.47 under setting [1] and 4.24 ± 0.4 under setting [2].

On to PVSCCLGLLLESLVPFIVNDNITN [DYNC2LI1], for which the protein stability index by setting is: under setting [1], 2.57 ± 0.94; under setting [2], 2.79 ± 0.58.

Consider VAVALRKPDGSRHQDVPSQDDSKP [AASDHPPT], for which the protein stability index was 5.15 ± 0.26 under setting [1] and 5 ± 0.17 under setting [2].

For the sequence LFLDLLQSYKDLCERHEKGVLHKH [SNX8], the protein stability index amounted to 2.49 ± 0.12 under setting [1] and 2.64 ± 0.37 under setting [2].

As for LRQQCAQVLRNNPDALSDVGEVPY [ELOA2], the protein stability index under setting [1] is 3.88 ± 0.21 and the protein stability index under setting [2] is 3.93 ± 0.16.

As to FICKECGKAYGWCSELIRHRRVHA [ZNF232], the protein stability index runs as follows: under setting [1], 3.38 ± 0.3; under setting [2], 3.73 ± 0.33.

Consider SSAGSVSPRSTSVTTTSSASVTTT [KRT13], for which the protein stability index is, setting by setting: under setting [1], 5.25 ± 0.15; under setting [2], 5.23 ± 0.12.

The sequence YTFLYLVCISTKTQCSEEDQCKIN [FEM1B] came in with a protein stability index under setting [1] of 2.65 ± 0.51 and a protein stability index under setting [2] of 2.33 ± 0.2.

IAILLYKSKPDRKRAESDSRKSSI [PTPRD]: the protein stability index was 1.75 ± 0.23 under setting [1] and 1.92 ± 0.44 under setting [2].
